Residue numbers refer to the chain shown, from its start. Read-outs that look alike come from different tables or passages of the source. Each block holds one binder with its values, some of them ahead of it.
How the values were obtained:
[1] = molecular target: T1, mouse VISTA expressed on HEK293A cells (mouse, UniProt Q9D659 33-308); assay: FACS on HEK293A/mouse VISTA cells, MFI [panel C]
T1 construct: also called HEK293A/mouseVISTA; HEK293A/mouse VISTA
T1 sequence: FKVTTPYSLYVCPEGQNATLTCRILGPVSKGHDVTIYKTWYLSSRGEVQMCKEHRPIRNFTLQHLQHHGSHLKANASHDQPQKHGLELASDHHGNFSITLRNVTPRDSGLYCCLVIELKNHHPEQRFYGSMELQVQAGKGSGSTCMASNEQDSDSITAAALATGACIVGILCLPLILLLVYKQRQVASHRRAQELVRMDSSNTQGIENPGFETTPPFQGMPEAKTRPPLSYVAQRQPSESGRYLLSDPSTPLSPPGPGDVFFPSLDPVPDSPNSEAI

[2] = molecular target: T2, human VISTA (ECD)-his (Sino Biological, Cat #:13482-H08H) (human, UniProt Q9H7M9 33-194); assay: ELISA, plate coated with human VISTA (ECD)-his, OD450 [panel A]
T2 construct: extracellular domain; Bought protein; also called hVISTA(ECD)-his; recombinant human VISTA(ECD)-his; not shown: his tag
T2 sequence (looked up): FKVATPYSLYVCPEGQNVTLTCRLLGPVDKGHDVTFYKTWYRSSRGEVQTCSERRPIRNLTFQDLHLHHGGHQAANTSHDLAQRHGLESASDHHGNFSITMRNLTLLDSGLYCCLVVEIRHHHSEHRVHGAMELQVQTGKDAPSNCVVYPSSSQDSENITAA

[3] = molecular target: T3, monkey VISTA (ECD)-his (Sino Biological, Cat #: 90801-K08H) (cynomolgus monkey); assay: ELISA, plate coated with monkey VISTA (ECD)-his, OD450 [panel B]
T3 construct: extracellular domain; Bought protein; also called cynoVISTA(ECD)-his; cynomolgus VISTA (ECD)-his

[4] = molecular target: T3, monkey VISTA (ECD)-his (Sino …); assay: as above; remark: listed apart in the source
[5] = molecular target: T2, human VISTA (ECD)-his (Sino Biological, …); assay: SPR (BIAcore 8K), human VISTA (ECD)-his coupled to the chip, antibody injected
Procedure: (§1) They were also tested in SPR assays for their binding affinities to human and monkey VISTA with the BIAcore™ 8K instrument (GE Life Sciences). Briefly, 100-200 response units (RU) of human VISTA (ECD)-his protein (Sino Biological, CN, Cat #:13482-H08H) or monkey VISTA (ECD)-his protein (Sino Biological, CN, Cat #:90801-K08H) were coupled to CM5 biosensor chips (Cat #: BR-1005-30, GE Life Sciences), followed by blocking of un-reacted groups with 1M ethanolamine. Serially diluted antibodies at concentrations ranging from 0.3 µM to 10 µM were injected into the SPR running buffer (HBS-EP buffer, pH7.4, GE Life Sciences; US; Cat #:BR-1006-69) at 30 µL/minute. The binding capacitities were calculated with the RUs of blank controls subtracted. The association rate (k_a) and dissociation rate (k_d) were calculated using the one-to-one Langmuir binding model (BIA Evaluation Software, GE Life Sciences). The equilibrium dissociation constant K_D was calculated as the k_d/k_a ratio.

[6] = molecular target: T2, human VISTA (ECD)-his (Sino Biological, …); assay: ELISA, plate coated with human VISTA (ECD)-his, OD450 [panel A]; remark: listed apart in the source
[7] = molecular target: T4, mouse VISTA-his (Sino Biological, Cat #:511550-M08H) (mouse, UniProt Q9D659 33-191); assay: ELISA, plate coated with mouse VISTA-his, OD450 [panel C]
T4 construct: extracellular domain; Bought protein; also called muVISTA-his; mouse VISTA (ECD)-his; not shown: his tag
T4 sequence (looked up): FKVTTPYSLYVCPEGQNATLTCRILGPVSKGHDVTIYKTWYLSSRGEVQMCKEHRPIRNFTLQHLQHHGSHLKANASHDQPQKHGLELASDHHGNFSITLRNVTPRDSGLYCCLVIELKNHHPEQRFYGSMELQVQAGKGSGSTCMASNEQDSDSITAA

[8] = molecular target: T3, monkey VISTA (ECD)-his (Sino …); assay: SPR (BIAcore 8K), monkey VISTA (ECD)-his coupled to the chip, antibody injected
Procedure: as §1

EC50 (read off the curve) [2]: ~0.03 µg/mL
EC50 (read off the curve) [3]: ~0.03 µg/mL
B3: 161E5-VH0VL0 (antibody, human IgG1, kappa, V domains shown)
VH: QVQLVQSGAEVKKPGASVKVSCKASGYSFTDYYINWVRQAPGQGLEWMGRIFPGSGNAYYNEKFKDRVTMTRDTSTSTVYMELSSLRSEDTAVYYCARDDSFYGYWYFDVWGQGTTVTVSS
VL: EIVMTQSPATLSVSPGERATLSCKSSQSVLYSSNQKNYLAWYQQKPGQAPRLLIYWASTRESGIPARFSGSGSGTEFTLTISSLQSEDFAVYYCHQYLSSYTFGGGTKVEIKR
notes: One of the 5 humanized 161E5 antibodies, human IgG1/kappa; also called humanized antibody 161E5-VH0VL0

EC50 (read off the curve) [2]: ~0.03 µg/mL
EC50 (read off the curve) [3]: ~0.03 µg/mL
Kd [5]: 0.0226 nM
Kd [8]: 0.0399 nM
B5: 161E5-VH3VL3 (antibody, human IgG1, kappa, V domains shown)
VH: B3 VH with A40R, M48I, G49A, V68A, M70L, R72V, T74K, V79A, Y95F
VL: B3 VL with E1N, V3M, A49S, I64V, A66D
notes: One of the 5 humanized 161E5 antibodies, human IgG1/kappa; also called humanized antibody 161E5VH3VL3

EC50 (read off the curve) [2]: ~0.03 µg/mL
EC50 (read off the curve) [3]: ~0.03 µg/mL
B6: 161E5-VH3VL2 (antibody, human IgG1, kappa, V domains shown)
VH: B3 VH with A40R, M48I, G49A, V68A, M70L, R72V, T74K, V79A, Y95F
VL: B3 VL with E1N, V3M, I64V, A66D
notes: One of the 5 humanized 161E5 antibodies, human IgG1/kappa; also called humanized antibody 161E5-VH3VL2

Continued, binder first:

B1: chimeric 161E5 antibody (antibody, human IgG1, kappa, V domains shown)
VH: QVQLKQSGAELVRPGASVKLSCKASGYSFTDYYINWVKQRPGQGLEWIARIFPGSGNAYYNEKFKDKATLTVEKSSSAAYMQLSSLTSEDSAVYFCARDDSFYGYWYFDVWGTGTTVTVSS
VL: NIMMTQSPSSLAVSAGEKVTMSCKSSQSVLYSSNQKNYLAWYQQKPGQSPKLLIYWASTRESGVPDRFTGSGSGTDFTLTISSVQAEDLAVYYCHQYLSSYTFGGGTKLEIKR
binding result [1]: no binding (tested: log 4 ng/ml (10000 ng/ml))
EC50 (read off the curve) [2]: ~0.03 µg/mL
EC50 (read off the curve) [3]: ~0.03 µg/mL
EC50 (read off the curve) [4]: ~0.03 µg/mL
Kd [5]: 0.0139 nM
EC50 (read off the curve) [6]: ~0.02 µg/mL
binding result [7]: no binding (tested: about log 4.3 ng/ml (about 20000 ng/ml))

B2: 161E5-VH2VL2 (antibody, human IgG1, kappa, V domains shown)
VH: B3 VH with M48I, G49A, V68A, M70L, R72V, T74K, V79A
VL: B3 VL with E1N, V3M, I64V, A66D
notes: One of the 5 humanized 161E5 antibodies, human IgG1/kappa; also called humanized antibody 161E5-VH2VL2
EC50 (read off the curve) [2]: ~0.03 µg/mL
EC50 (read off the curve) [3]: ~0.03 µg/mL

B4: 161E5-VH2VL3 (antibody, human IgG1, kappa, V domains shown)
VH: B3 VH with M48I, G49A, V68A, M70L, R72V, T74K, V79A
VL: B3 VL with E1N, V3M, A49S, I64V, A66D
notes: One of the 5 humanized 161E5 antibodies, human IgG1/kappa; also called humanized antibody 161E5VH2VL3
EC50 (read off the curve) [2]: ~0.03 µg/mL
EC50 (read off the curve) [3]: ~0.03 µg/mL
Kd [5]: 0.00236 nM
Kd [8]: 0.0145 nM

— patent US10577424 (BEIJING MABWORKS BIOTECH, dated 2020)
